Measurements as given in patent US20240269203A1 (Janssen / Centocor, published 2024).

Tests used:
[1] = target: human CD40 receptor, stably expressed on HEK293 (HEK-Blue) reporter cells (human) (UniProt P25942)
mouse CTLA-4 = target: T1, mouse CTLA-4 (mouse, UniProt P09793 36-161); assay: ELISA on immobilized mCTLA-4; supernatant of Vero cells infected with mJP-OV-2 (FIG. 33)
T1 construct: also called mCTLA-4

Molecule | EC50 (read off the curve), CD40 reporter cells, OD 650 nM [1] | binding result (mouse CTLA-4)
hCD40ag (human CD40 agonist payload; Fc-less trimer of single-chain CD40L ectodomain trimer bundles with T4 fibritin trimerization motif), purified (ligand) | 3 ng/mL | 
mαCTLA-4 (mouse surrogate anti-CTLA-4 antagonist payload; anti-CTLA-4 VHH fused to the heavy chain of mouse IgG2a Fc), expressed from mJP-OV-2 (Fc fusion, also called Mouse CTLA-4 antagonist payload; OVTSB24) QVQLVESGGGLAQPGGSLRLSCAASGSTISSVAVGWYRQTPGNQREWVATSSTSSTTATYADSVKGRFTISRDNAKNTIYLQMNSLKPEDTAVYYCKTGLTNWGRGTQVTVSSEPRGPTIKPCPPCKCPAPNLLGGPSVFIFPPKIKDVLMISLSPIVTCVVVDVSEDDPDVQISWFVNNVEVHTAQTQTHREDYNSTLRVVSALPIQHQDWMSGKEFKCKVNNKDLPAPIERTISKPKGSVRAPQVYVLPPPEEEMTKKQVTLTCMVTDFMPEDIYVEWTNNGKTELNYKNTEPVLDSDGSYFMYSKLRVEKKNWVERNSYSCSVVHEGLHNHHTTKSFSRTPGK |  | binds
